Drawing on US9192648, this text covers IC50 for 1 substance.

As a reminder, the IC50 is the point on the concentration scale where inhibition reaches its midpoint. The low end stands for greater potency, the high end for weaker potency.

The assay deals with complement C5. The assay is described as follows: assay for the IC50 not described; told with the direct binding to C5 (FIG. 4C).

“EV576 protein (from UniProt Q5YD59 19-168)”: the half-inhibitory concentration (IC50) is 20 µg/mL.
